The text below walks through data of US20090143308A1.

Test in all cases: cell-based or functional assay
Assay [1] addresses Saccharomyces cerevisiae Pdr5p (over-expressed in strain AD124567) (Saccharomyces cerevisiae) (UniProt P33302).
Assay [2] concerns the target Candida albicans Cdr1p as expressed in S. cerevisiae AD1002 (CDR1 of plasmid pKEN1002) (Candida albicans) (UniProt P43071).
Assay [3] deals with S. cerevisiae plasma membrane H+-ATPase (Pma1p) (Saccharomyces cerevisiae) (UniProt P05030).
S. cerevisiae plasma membrane H+-ATPase (Pma1p) (Saccharomyces cerevisiae), sequence (P05030 whole entry): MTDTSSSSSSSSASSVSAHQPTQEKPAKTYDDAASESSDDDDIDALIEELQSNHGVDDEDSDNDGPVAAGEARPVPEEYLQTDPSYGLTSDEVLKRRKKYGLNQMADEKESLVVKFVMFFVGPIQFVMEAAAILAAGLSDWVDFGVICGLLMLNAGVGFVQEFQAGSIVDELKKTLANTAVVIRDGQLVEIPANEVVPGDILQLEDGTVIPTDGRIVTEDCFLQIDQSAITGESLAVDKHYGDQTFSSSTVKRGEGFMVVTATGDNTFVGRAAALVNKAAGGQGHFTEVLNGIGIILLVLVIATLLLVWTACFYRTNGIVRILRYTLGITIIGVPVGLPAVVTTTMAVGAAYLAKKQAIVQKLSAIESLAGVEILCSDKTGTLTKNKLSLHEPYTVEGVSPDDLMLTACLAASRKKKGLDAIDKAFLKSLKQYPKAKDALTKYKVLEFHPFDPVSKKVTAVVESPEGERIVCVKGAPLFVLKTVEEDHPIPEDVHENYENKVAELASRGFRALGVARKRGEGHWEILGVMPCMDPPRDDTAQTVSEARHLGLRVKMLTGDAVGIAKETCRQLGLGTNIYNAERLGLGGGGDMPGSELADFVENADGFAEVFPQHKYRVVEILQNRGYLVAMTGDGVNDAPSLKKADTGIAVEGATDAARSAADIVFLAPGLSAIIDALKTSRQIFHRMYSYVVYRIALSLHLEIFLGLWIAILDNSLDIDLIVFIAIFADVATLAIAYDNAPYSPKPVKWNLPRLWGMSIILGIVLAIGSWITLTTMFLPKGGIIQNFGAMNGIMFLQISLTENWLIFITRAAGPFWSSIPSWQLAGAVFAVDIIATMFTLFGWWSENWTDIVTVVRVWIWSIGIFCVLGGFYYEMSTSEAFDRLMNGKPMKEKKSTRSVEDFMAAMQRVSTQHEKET

Candida albicans Cdr1p as expressed in S. cerevisiae AD1002 (CDR1 of plasmid pKEN1002) (Candida albicans), sequence (P43071 whole entry): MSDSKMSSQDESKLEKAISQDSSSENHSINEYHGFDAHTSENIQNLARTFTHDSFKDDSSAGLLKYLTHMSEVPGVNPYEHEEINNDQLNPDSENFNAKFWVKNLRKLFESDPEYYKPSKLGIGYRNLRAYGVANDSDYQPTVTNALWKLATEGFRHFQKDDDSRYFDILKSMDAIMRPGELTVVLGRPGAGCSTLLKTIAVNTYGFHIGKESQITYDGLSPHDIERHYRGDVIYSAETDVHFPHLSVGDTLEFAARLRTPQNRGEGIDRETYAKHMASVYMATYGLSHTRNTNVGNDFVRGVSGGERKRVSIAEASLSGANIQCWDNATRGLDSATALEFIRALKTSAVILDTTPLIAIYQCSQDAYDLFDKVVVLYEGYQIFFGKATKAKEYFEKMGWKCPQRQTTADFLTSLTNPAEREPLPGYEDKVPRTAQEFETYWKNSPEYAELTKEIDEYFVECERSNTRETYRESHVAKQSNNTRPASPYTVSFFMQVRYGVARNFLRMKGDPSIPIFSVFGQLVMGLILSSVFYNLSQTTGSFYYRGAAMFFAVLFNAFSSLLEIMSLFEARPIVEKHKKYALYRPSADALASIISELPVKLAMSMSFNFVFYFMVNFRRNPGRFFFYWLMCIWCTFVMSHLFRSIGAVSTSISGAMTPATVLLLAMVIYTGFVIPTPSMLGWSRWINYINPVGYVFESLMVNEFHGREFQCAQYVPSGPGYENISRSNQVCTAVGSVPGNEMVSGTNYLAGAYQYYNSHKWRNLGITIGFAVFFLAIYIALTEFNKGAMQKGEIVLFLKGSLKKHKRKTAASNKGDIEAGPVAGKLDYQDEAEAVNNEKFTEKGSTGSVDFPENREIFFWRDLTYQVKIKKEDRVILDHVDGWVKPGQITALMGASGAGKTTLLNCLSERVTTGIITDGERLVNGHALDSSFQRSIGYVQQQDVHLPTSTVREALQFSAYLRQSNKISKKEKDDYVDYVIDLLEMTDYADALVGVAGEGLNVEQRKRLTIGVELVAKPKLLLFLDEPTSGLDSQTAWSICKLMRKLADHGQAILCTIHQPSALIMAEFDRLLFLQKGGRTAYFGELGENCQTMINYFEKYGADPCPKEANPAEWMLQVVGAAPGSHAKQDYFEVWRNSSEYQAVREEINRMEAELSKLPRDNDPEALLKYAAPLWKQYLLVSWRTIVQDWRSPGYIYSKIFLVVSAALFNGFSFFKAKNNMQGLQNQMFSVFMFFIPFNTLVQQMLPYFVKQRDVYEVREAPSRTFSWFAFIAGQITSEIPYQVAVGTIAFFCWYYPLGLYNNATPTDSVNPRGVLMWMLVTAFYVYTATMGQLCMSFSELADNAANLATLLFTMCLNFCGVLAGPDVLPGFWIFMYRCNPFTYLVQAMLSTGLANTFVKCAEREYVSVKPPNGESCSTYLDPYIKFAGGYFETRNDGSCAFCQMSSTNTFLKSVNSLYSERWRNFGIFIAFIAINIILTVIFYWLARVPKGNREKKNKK
Saccharomyces cerevisiae Pdr5p (over-expressed in strain AD124567) (Saccharomyces cerevisiae), sequence (P33302 whole entry): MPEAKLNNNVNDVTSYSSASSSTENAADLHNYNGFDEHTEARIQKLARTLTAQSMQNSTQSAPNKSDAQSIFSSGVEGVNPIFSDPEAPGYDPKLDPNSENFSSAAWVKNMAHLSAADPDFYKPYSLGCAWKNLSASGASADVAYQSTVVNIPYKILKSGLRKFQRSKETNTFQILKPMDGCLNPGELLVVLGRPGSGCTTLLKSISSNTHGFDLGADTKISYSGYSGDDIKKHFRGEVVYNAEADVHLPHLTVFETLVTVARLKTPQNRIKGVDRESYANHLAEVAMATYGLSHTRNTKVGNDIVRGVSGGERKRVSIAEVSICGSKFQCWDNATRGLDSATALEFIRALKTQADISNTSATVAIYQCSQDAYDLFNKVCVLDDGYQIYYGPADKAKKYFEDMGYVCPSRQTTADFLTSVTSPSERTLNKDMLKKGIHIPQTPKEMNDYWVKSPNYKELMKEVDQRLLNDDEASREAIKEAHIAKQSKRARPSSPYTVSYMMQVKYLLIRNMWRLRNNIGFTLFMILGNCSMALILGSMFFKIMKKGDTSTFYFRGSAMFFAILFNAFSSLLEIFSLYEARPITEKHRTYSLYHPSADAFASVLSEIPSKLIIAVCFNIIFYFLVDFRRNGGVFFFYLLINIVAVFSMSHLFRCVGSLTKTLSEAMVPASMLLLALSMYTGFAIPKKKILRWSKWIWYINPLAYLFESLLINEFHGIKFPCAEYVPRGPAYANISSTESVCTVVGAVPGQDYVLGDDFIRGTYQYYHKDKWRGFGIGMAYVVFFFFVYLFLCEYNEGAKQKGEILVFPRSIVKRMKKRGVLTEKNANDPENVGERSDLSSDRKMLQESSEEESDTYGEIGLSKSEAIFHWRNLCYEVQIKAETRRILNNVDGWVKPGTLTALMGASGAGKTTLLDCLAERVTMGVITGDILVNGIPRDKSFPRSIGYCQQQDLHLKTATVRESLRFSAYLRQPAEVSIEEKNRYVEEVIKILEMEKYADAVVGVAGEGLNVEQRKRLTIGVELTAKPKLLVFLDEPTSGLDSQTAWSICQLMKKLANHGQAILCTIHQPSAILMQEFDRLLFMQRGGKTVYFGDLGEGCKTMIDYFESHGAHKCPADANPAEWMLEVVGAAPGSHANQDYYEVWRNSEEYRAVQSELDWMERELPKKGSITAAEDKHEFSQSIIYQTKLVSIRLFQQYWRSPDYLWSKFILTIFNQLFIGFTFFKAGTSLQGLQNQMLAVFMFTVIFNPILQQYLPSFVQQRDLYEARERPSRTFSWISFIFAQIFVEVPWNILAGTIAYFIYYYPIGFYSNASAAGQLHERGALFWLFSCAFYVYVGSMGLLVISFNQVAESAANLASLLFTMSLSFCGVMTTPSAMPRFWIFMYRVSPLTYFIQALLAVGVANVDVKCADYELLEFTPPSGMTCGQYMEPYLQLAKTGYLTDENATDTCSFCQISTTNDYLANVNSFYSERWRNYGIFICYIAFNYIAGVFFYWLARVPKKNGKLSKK

“KN20 (D-NH2-asparagine-tryptophan-tryptophan-lysine-valine-arginine-arginine-arginine-CONH2 with a single Mtr substituent) (peptide)” showed an inhibition of oligomycin sensitive ATPase activity of plasma membranes from the AD124567 yeast strain overexpressing Pdr5p (I50) in assay [1] of 3 µM. In assay [2], this substance gave a fold higher inhibitory concentration for Cdr1p ATPase than for Pdr5p ATPase of 2.7 fold and an inhibition of oligomycin sensitive ATPase activity of AD1002 plasma membranes (I50) of 8 µM. In assay [3], the inhibition of S. cerevisiae plasma membrane H+-ATPase (I50) was 10 µM.
